Experimental data from patent US20170189529A1 (CONTRAFECT, published 2017).

Key:
[1] = molecular target: recombinant HA of influenza B virus B/Brisbane/08 (Victoria clade) (influenza B virus B/Brisbane/08 …); assay: recombinant HA ELISA (AttoPhos fluorescence, mean of triplicates)
[2] = molecular target: T1, hemagglutinin (HA) of influenza B virus B/Malaysia (Victoria lineage) (influenza B virus B/Malaysia/04 …); assay: as above
[3] = molecular target: recombinant HA of influenza B virus B/Mass/12 (Yamagata clade) (influenza B virus B/Mass/12 (Yamagata …)); assay: as above
[4] = molecular target: recombinant HA of influenza B virus B/Wisconsin/10 (Yamagata clade) (influenza B virus B/Wisconsin/10 …); assay: as above
[5] = molecular target: T2, hemagglutinin (HA) of influenza B virus B/Florida (Yamagata lineage) (influenza B virus B/Florida/06 …); assay: as above
[6] = molecular target: T1, hemagglutinin (HA) of influenza B virus …; assay: ForteBio Octet; antigen on the sensor, varying antibody concentrations
[7] = molecular target: T2, hemagglutinin (HA) of influenza B virus …; assay: as above

| Binder | fold reactivity over background [1] [fold over background] | fold reactivity over background [2] [fold over background] | fold reactivity over background [3] [fold over background] | fold reactivity over background [4] [fold over background] | fold reactivity over background [5] [fold over background] | Kd [6] [nM] | Kd [7] [nM] |
| --- | --- | --- | --- | --- | --- | --- | --- |
| TRL809 (antibody, V domains shown) VH: QVQLLESGGGVVRPGRSLRLACAGSGFTFSAYAMHWVRQAPGKGLEWVAHTSYDGRDSYYVDSVKGRFTISRDDSKNTLYLQMNSLRPEDTAVYYCAKVGPYTGYDDYNYYGMDVWGHGTTVTVSS VL: DIVLTQSPVSLAVSLGESATVNCKSSQSVLSNSKNLNYLAWYQHKPGQPPKLLIYWASTRESGVPDRFSGSGSGTDFTLTISSLQAEDVAVYYCQQHYSIPLTFGPGTKVDIKR | 25.6 | 25.6 | 25.6 | 25.6 | 25.6 | 0.2 | 0.18 |
| TRL812 (antibody, V domains shown) VH: QVQLVQSGGGVVQPGRSLRLSCAASGFNFSSYGMHWVRQAPGKGLEWLSVIWSGGSNKYYADSVKGRFTISRDDSKNTVYLQMNSLRDEDTAVYYCARAHTALTRFRWLDPWGQGILVTVSS VL: DIVMTQSPATLSVSPGEGATLSCRASQGIGSNLAWYQHKPGQAPRLLIYAASTRATGVPARFSGSGSGTEFTLTISSLQSEDLAVYFCQQYNTWPLTFGGGTKVEIIR | 25.6 | 25.6 | 25.6 | 25.6 | 25.6 |  |  |
| TRL856 (antibody, V domains shown) VH: QVQLVESGGGLVQPGGSLRLSCAASGFTFSDYWMVWVRQAPGKGLVWVSRISSDGSTTSYADSVKGPFTISRDNAKNTLYLQMNSLRAEDTAVYYCARVATPYYYESGFDYWGQGALVTVSS VL: DIVLTQSPSVSVAPGQTARITCGGNDIGSKSVHWYQQKPGQAPVLVVFDDRDRPSGIPERFSGSNSGNTATLTISRVEAGDEADYYCQVWDITSDLVVFGGGTKLTVVG | 24.1 | 25.6 | 25.6 | 25.6 | 25.6 |  |  |
| TRL813 (antibody, V domains shown) VH: QVQLVESGGGLVQPGGSLRLSCAASGFIFGDFAIHWVRQASGKGLEWVARIRSGLNRFETAYAASVEGRLTISRDDSKSMAYLQMNNVKAEDTAVYLCTYLVGAVGFQHWGQGTLVTVSS VL: DIVMTQSPSTLSASVGDRVTITCRASQTIYRWLAWYQQKPGKAPKVLIYKASTLESGVPSRFSGSGSGTEFTLAISSLQPDDFATYYCQQYNSFPYRFGQGTKVEIKR | 25.6 | 25.6 | 25.6 | 25.6 | 25.6 |  |  |
| TRL832 (antibody, V domains shown) VH: QVQLVESGPGLMKPSETLSLTCTVSGGSVSNYYWSWIRQPPGKGLEWIGYVFYSGSSNYNPSLNNPSLKSRVTISIDTSNNQFSLKLSSVTAADTAVYYCARGRVNSGYDWGPNFDSWGQGALVTVSS VL: DIVLTQAPSVSVSPGQTASITCSGDRLGEKFASWYQQKPGQSPVLVIYEDSKRPSGIPDRFSGSNSGNTATLTISGTQIMDEGDFFCQAWDSSTVVFGGGTKLTVLG | 25.6 | 25.6 | 25.6 | 25.6 | 25.6 | 0.2 | 1.7 |
| TRL841 (antibody, V domains shown) VH: QVQLVESGGGVVQPGRSLRLSCAASGFTFSSYGIYWVRQAPGKGLEWVAFISYDEINKFYADSVKGRFTISRDNSKNTVFLQMNSLRDEDTAVYYCAKPLRGSYRYFDLWGRGTVVTVSS VL: DIVMTQPPATLSVSPGERATLSCGASQGLGSNLAWYQQKPGQAPRLLIYAASTRATGITARFSGSGSGTEFTLTINSLQSEDFALYYCQQYTYWPLTFGGGTKVEIKR | 25.6 | 25.6 | 25.6 | 25.6 | 25.6 |  |  |
